Results published in patent US20170210799A1 (Janssen / Centocor, published 2017).

T1: human FcγRIIb (human, UniProt P31994 46-217)
T1 construct: bought, His-tagged, on Ni2+ Acceptor beads; also called FcγRIIb/c (CD32b/c)
T1 sequence (looked up): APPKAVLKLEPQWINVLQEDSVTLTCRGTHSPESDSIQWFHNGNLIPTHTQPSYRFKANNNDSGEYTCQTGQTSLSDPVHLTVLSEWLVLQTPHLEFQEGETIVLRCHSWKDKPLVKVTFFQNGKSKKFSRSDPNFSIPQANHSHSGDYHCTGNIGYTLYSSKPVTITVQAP

T2: human FcγRIIa (CD32a) (human, UniProt P12318 36-218)
T2 construct: bought, His-tagged, on Ni2+ Acceptor beads
T2 sequence (looked up): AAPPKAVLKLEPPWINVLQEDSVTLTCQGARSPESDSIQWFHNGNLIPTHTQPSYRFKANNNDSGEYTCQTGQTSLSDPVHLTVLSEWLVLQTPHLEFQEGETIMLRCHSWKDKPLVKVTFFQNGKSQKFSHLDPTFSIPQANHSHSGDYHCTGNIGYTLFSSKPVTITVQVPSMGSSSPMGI

B1: RCDB5 (bispecific antibody, human IgG4 S228P, kappa, lambda, F234A L235A)
heavy 1: not shown
light 1: not shown
heavy 2: EVQLVESGGGLVQPGGSLRLSCAASGFTFNTYAMNWVRQAPGKGLEWVARIRSKYNNYATYYAASVKGRFTISRDDSKNSLYLQMNSLKTEDTAVYYCARHGNFGNSYVSWFAYWGQGTLVTVSSASTKGPSVFPLAPCSRSTSESTAALGCLVKDYFPEPVTVSWNSGALTSGVHTFPAVLQSSGLYSLSSVVTVPSSSLGTKTYTCNVDHKPSNTKVDKRVESKYGPPCPPCPAPEAAGGPSVFLFPPKPKDTLMISRTPEVTCVVVDVSQEDPEVQFNWYVDGVEVHNAKTKPREEQFNSTYRVVSVLTVLHQDWLNGKEYKCKVSNKGLPSSIEKTISKAKGQPREPQVYTLPPSQEEMTKNQVSLTCLVKGFYPSDIAVEWESNGQPENNYKTTPPVLDSDGSFLLYSKLTVDKSRWQEGNVFSCSVMHEALHNHYTQKSLSLSLGK
light 2: QTVVTQEPSLTVSPGGTVTLTCRSSTGAVTTSNYANWVQQKPGQAPRGLIGGTNKRAPGTPARFSGSLLGGKAALTLSGVQPEDEAEYYCALWYSNLWVFGGGTKLTVLGQPKAAPSVTLFPPSSEELQANKATLVCLISDFYPGAVTVAWKADSSPVKAGVETTTPSKQSNNKYAASSYLSLTPEQWKSHRSYSCQVTHEGSTVEKTVAPTECS
notes: also called ROR1×CD3 bispecific antibody
B2: RCDB13 (bispecific antibody, human IgG4 S228P, kappa, lambda, F234A L235A)
heavy 1: not shown
light 1: not shown
heavy 2: B1 heavy 2
light 2: B1 light 2
notes: DuoBody IgG4 PAA, ROR1 arm + CD3B219 arm; also called RR1B78 × CD3B219
B3: RCDB3 (bispecific antibody, human IgG4 S228P, kappa, lambda, F234A L235A)
heavy 1: not shown
light 1: not shown
heavy 2: B1 heavy 2
light 2: B1 light 2
notes: DuoBody IgG4 PAA, ROR1 arm + CD3B219 arm; also called RR1B65 × CD3B219
B4: RCDB7 (bispecific antibody, human IgG4 S228P, kappa, lambda, F234A L235A)
heavy 1: not shown
light 1: not shown
heavy 2: B1 heavy 2
light 2: B1 light 2
notes: DuoBody IgG4 PAA, ROR1 arm + CD3B219 arm; also called RR1B70 × CD3B219
B5: RCDB11 (bispecific antibody, human IgG4 S228P, kappa, lambda, F234A L235A)
heavy 1: not shown
light 1: not shown
heavy 2: B1 heavy 2
light 2: B1 light 2
notes: DuoBody IgG4 PAA, ROR1 arm + CD3B219 arm; also called RR1B76 × CD3B219
B6: RCDB17 (bispecific antibody, human IgG4 S228P, kappa, lambda, F234A L235A)
heavy 1: not shown
light 1: not shown
heavy 2: B1 heavy 2
light 2: B1 light 2
notes: DuoBody IgG4 PAA, ROR1 arm + CD3B219 arm; also called RR1B85 × CD3B219
B7: RCDB15 (bispecific antibody, human IgG4 S228P, kappa, lambda, F234A L235A)
heavy 1: not shown
light 1: not shown
heavy 2: B1 heavy 2
light 2: B1 light 2
notes: DuoBody IgG4 PAA, ROR1 arm + CD3B219 arm; also called RR1B83 × CD3B219
B8: RCDB5 (bispecific antibody, human IgG4 S228P, kappa, lambda, F234A L235A)
heavy 1: not shown
light 1: not shown
heavy 2: B1 heavy 2
light 2: B1 light 2
notes: DuoBody IgG4 PAA, ROR1 arm + CD3B219 arm
B9: RCDB4 (bispecific antibody, human IgG4 S228P, kappa, lambda, F234A L235A)
heavy 1: not shown
light 1: not shown
heavy 2: B1 heavy 2
light 2: B1 light 2
notes: DuoBody IgG4 PAA, ROR1 arm + CD3B219 arm; also called RR1B66 × CD3B219
B10: RCDB9 (bispecific antibody, human IgG4 S228P, kappa, lambda, F234A L235A)
heavy 1: not shown
light 1: not shown
heavy 2: B1 heavy 2
light 2: B1 light 2
notes: DuoBody IgG4 PAA, ROR1 arm + CD3B219 arm; also called RR1B72 × CD3B219
B11: RCDB16 (bispecific antibody, human IgG4 S228P, kappa, lambda, F234A L235A)
heavy 1: not shown
light 1: not shown
heavy 2: B1 heavy 2
light 2: B1 light 2
notes: DuoBody IgG4 PAA, ROR1 arm + CD3B219 arm; also called RR1B84 × CD3B219
B12: RCDB6 (bispecific antibody, human IgG4 S228P, kappa, lambda, F234A L235A)
heavy 1: not shown
light 1: not shown
heavy 2: B1 heavy 2
light 2: B1 light 2
notes: as for B8
B13: RCDB19 (bispecific antibody, human IgG4 S228P, kappa, lambda, F234A L235A)
heavy 1: not shown
light 1: not shown
heavy 2: B1 heavy 2
light 2: B1 light 2
notes: DuoBody IgG4 PAA, ROR1 arm + CD3B219 arm; also called RR1B88 × CD3B219
B14: RCDB18 (bispecific antibody, human IgG4 S228P, kappa, lambda, F234A L235A)
heavy 1: not shown
light 1: not shown
heavy 2: B1 heavy 2
light 2: B1 light 2
notes: DuoBody IgG4 PAA, ROR1 arm + CD3B219 arm; also called RR1B86 × CD3B219
B15: RCDB8 (bispecific antibody, human IgG4 S228P, kappa, lambda, F234A L235A)
heavy 1: not shown
light 1: DIQMTQSPSSLSASVGDRVTITCRASQSIDRHLNWYQQKPGKAPKLLIYKASSLQSGVPSRFSGSGSGTDFTLTISSLQPEDFATYYCQQPHTFPLTFGQGTKVEIKRTVAAPSVFIFPPSDEQLKSGTASVVCLLNNFYPREAKVQWKVDNALQSGNSQESVTEQDSKDSTYSLSSTLTLSKADYEKHKVYACEVTHQGLSSPVTKSFNRGEC
heavy 2: B1 heavy 2
light 2: B1 light 2
notes: DuoBody IgG4 PAA, ROR1 arm + CD3B219 arm; also called RR1B71 × CD3B219
B16: RCDB12 (bispecific antibody, human IgG4 S228P, kappa, lambda, F234A L235A)
heavy 1: not shown
light 1: not shown
heavy 2: B1 heavy 2
light 2: B1 light 2
notes: DuoBody IgG4 PAA, ROR1 arm + CD3B219 arm; also called RR1B77 × CD3B219
B17: RCDB14 (bispecific antibody, human IgG4 S228P, kappa, lambda, F234A L235A)
heavy 1: not shown
light 1: not shown
heavy 2: B1 heavy 2
light 2: B1 light 2
notes: DuoBody IgG4 PAA, ROR1 arm + CD3B219 arm; also called RR1B82 × CD3B219
B18: RR1B78 (antibody, human IgG4 S228P, kappa, F234A L235A, V domains shown)
VH: EVQLVQSGAEVKKPGESLKISCKGSGYSFTSYWIGWVRQMPGKGLEWMGIIYPGDSDTRYSPSFQGQVTISADKSISTAYLQWSSLKASDTAMYYCARDVGRWAPGGFLDYWGQGTLVTVSS
VL: not shown
notes: huIgG4 PAA/kappa
B19: RR1B67 (antibody, human IgG4 S228P, kappa, F234A L235A, V domains shown)
VH: QVQLVQSGAEVKKPGSSVKVSCKASGGTFSTYAIHWVRQAPGQGLEWMGRIIPIEGRAYYAQKFQGRVTITADESTSTAYMELSSLRSEDTAVYYCARGRYSYRYWFDYWGQGTLVTVSS
VL: EIVLTQSPATLSLSPGERATLSCRASQSVSSYLAWYQQKPGQAPRLLIYDASNRATGIPARFSGSGSGTDFTLTISSLEPEDFAVYYCQQRSNWPLTFGQGTKVEIKR
notes: huIgG4 PAA, kappa; also called RRIB67

Molecular target: T3, human FcγRI (CD64) (human, UniProt P12314 16-288)
T3 construct: bought, His-tagged, on Ni2+ Acceptor beads; also called FcγR1
Test: competition AlphaScreen

B1: binds.

Molecular target: T1, human FcγRIIb
Test: competition AlphaScreen

B1: binds.

Molecular target: T4, human FcγRIIIa (CD16a) (human, UniProt P08637 17-208)
T4 construct: bought, His-tagged, on Ni2+ Acceptor beads
Test: competition AlphaScreen

B1: binds.

Molecular target: T5, human ROR1 (Receptor Tyrosine Kinase-Like Orphan Receptor 1) on cells (human, UniProt Q01973 30-937)
Test: cell-based or functional assay

Point of comparison: B3, “Killing EC50” value 2.48 nM. Against it:
- B2 — 4.6-fold lower, 0.539 nM
- B4 — 6.8-fold higher, 16.9 nM
- B5 — 10-fold lower, 0.247 nM
- B6 — 2.1-fold higher, 5.17 nM
- B7 — 1.9-fold lower, 1.28 nM
- B8 — 5.5-fold lower, 0.454 nM
- B9 — 3.7-fold lower, 0.677 nM
- B10 — within 1.5-fold, 3.21 nM
- B11 — within 1.5-fold, 2.91 nM
- B12 — 5.7-fold lower, 0.437 nM

Molecular target: T6, human ROR1 (Receptor Tyrosine Kinase-Like Orphan Receptor 1) on cells (human, UniProt Q01973 30-937)
T6 construct: whole, on cells; endogenous on SKMES-1, MDA-MB231, H358, HCC827 and MCL lines, or on HEK293 cells transfected with human ROR1 (pDR25226); the cell line is named under assay; also called cell-surface ROR1; hu ROR1
Test: MSD-CAT, cells expressing ROR1

Binder B1 has a Kd of roughly 0.3 nM.

Molecular target: T5, human ROR1 (Receptor Tyrosine …)
Test: flow cytometry, HCC827 cells

Point of comparison: B17, EC50 6.21 nM. Against it:
- B2 — 3.8-fold lower, 1.64 nM
- B13 — 2.6-fold higher, 16.2 nM
- B3 — 1.6-fold lower, 3.77 nM
- B14 — within 1.5-fold, 5.07 nM
- B15 — 1.7-fold higher, 10.6 nM
- B4 — 6.2-fold lower, 1 nM
- B5 — 2.6-fold lower, 2.36 nM
- B6 — within 1.5-fold, 4.72 nM
- B16 — 5-fold lower, 1.25 nM
- B7 — within 1.5-fold, 6.34 nM
- B8 — 1.7-fold lower, 3.74 nM
- B9 — within 1.5-fold, 9.14 nM
- B10 — 2.7-fold higher, 16.9 nM
- B11 — 1.7-fold higher, 10.4 nM
- B12 — within 1.5-fold, 6.25 nM

Molecular target: T5, human ROR1 (Receptor Tyrosine …)
Test: MSD-CAT, HEK293 cells expressing human ROR1

Point of comparison: B8, Kd 0.331 nM. Against it:
- B2 — within 1.5-fold, 0.254 nM
- B5 — within 1.5-fold, 0.382 nM
- B16 — within 1.5-fold, 0.236 nM
- B10 — 6.9-fold higher, 2.27 nM
- B12 — 2-fold higher, 0.648 nM

Molecular target: T6, human ROR1 (Receptor Tyrosine …)
Test: detection of control ROR1+ cell lines spiked into fixed whole blood

B18: binds.

Molecular target: T5, human ROR1 (Receptor Tyrosine …)
Test: MSD-CAT, HEK293 cells expressing human ROR1; apparent KD (bivalent, avidity)

Binder B19 has a Kd of 0.055 nM.

Molecular target: T6, human ROR1 (Receptor Tyrosine …)
Test: MSD-CAT; 1000 pM antibody equilibrated with serially diluted HEK293 cells overexpressing human ROR1

B1 was tested, and the “IC50 (read off the curve)” value was roughly 1 nM.

Molecular target: T6, human ROR1 (Receptor Tyrosine …)
Test: MSD-CAT; 200, 40 or 8 pM antibody equilibrated with serially diluted HEK293 cells overexpressing human ROR1

In the case of B1, the “IC50 (read off the curve)” value is reported as roughly 0.4 nM.

Molecular target: T7, human FcRn (FCGRT/B2M Heterodimer) (human, UniProt P55899 24-297; P61769 21-119)
T7 construct: bought heterodimer, His-tagged
Test: AlphaScreen competition: unlabeled competitor antibody against biotinylated B21M WT IgG1 for His-tagged human FcRn; 1x PBS, 0.05% BSA, 0.01% Tween-20, pH 6.0

B1: binds.

Molecular target: T2, human FcγRIIa (CD32a)
Test: AlphaScreen competition: unlabeled competitor antibody against biotinylated B21M WT IgG1 for His-tagged human FcγRIIa; 1x PBS, 0.05% BSA, 0.01% Tween-20, pH 7.2

B1: binds.
